The record followed here is PMC3664792 (Nucleic Acids Research, 2013).

For one assay, the target named is α270-His6 (E. coli, UniProt P10443 1-270). The assay is described as follows: NMR.
A further assay has as its target β2 sliding clamp (E. coli, UniProt P0A988 1-366). As to the kind of experiment: SEC.
In another assay the target is His6-αGL (E. coli, UniProt P10443 1-1160, A921L | M923L | Val832Gly). As to the kind of experiment: pull-down.
The target of assay [1] is α270 in construct A (εCTS35–α270) (E. coli, UniProt P10443 1-270). The assay is described as follows: NMR.
Assay [2] has as its target α270(L21P) in construct A (E. coli, UniProt P10443 1-270, Leu21Pro). The assay is described as follows: crystal structure.

B1: εCTS59 (domain or fragment)
chain: MAFAMEGETQQQQGEATIQRIVRQASKLRVVFATDEEIAAHEARLDLVQKKGGSCLWRA
On to B1, for which the binding result with α270-His6 is reported as “binds”.

B2: εL (natural protein)
chain: MSTAITRQIVLDTETTGMNQIGAHYEGHKIIEIGAVEVVNRRLTGNNFHVYLKPDRLVDPEAFGVHGIADEFLLDKPTFAEVADEFMDYIRGAELVIHNAAFDIGFMDYEFSLLKRDIPKTNTFCKVTDSLAVARKMFPGKRNSLDALCARYEIDNSKRTLHGALLDAQILAEVYLAMTGGQLSLPLAMEGETQQQQGEATIQRIVRQASKLRVVFATDEEIAAHEARLDLVQKKGGSCLWRA
With B2, the binding result with β2 sliding clamp and in the assay with His6-αGL was “binds” in each case. With ASKLRVVFATDEEIAAHEARLDLVQKKGGSCLWRA (domain or fragment) [εCTS35 (residues 209–243 of ε) in construct A], the binding result in assay [1] and in assay [2] was “binds” in each case. For ATIQRIVRQASKLRVVFATDEEIAAHEARLDLVQKKGGSCLWRA (domain or fragment) [εCTS44 (residues 200–243 of ε) in construct A], the binding result in assay [2] was “binds”.
